Test results published in patent US20240018502A1.
Numbering of substitutions follows the chain as printed. Names may count otherwise.

B1: MTSP-1 protease domain with C122S (enzyme)
chain: VVGGTDADEGEWPWQVSLHALGQGHICGASLISPNWLVSAAHCYIDDRGFRYSDPTQWTAFLGLHDQSQRSAPGVQERRLKRIISHPFFNDFTFDYDIALLELEKPAEYSSMVRPISLPDASHVFPAGKAIWVTGWGHTQYGGTGALILQKGEIRVINQTTCENLLPQQITPRMMCVGFLSGGVDSCQGDSGGPLSSVEADGRIFQAGVVSWGDGCAQRNKPGVYTRLPLFRDWIKENTGV
B2: MTSP-1 protease domain Q38H/I41A/D60bV/F60eR/Y60gW/D96I/F97N/T98G/F99L/C122S/G151H/Q175L/Q192D (enzyme)
chain: VVGGTDADEGEWPWQVSLHALGHGHACGASLISPNWLVSAAHCYIDVRGRRWSDPTQWTAFLGLHDQSQRSAPGVQERRLKRIISHPFFNINGLDYDIALLELEKPAEYSSMVRPISLPDASHVFPAGKAIWVTGWGHTQYGGTHALILQKGEIRVINQTTCENLLPQLITPRMMCVGFLSGGVDSCDGDSGGPLSSVEADGRIFQAGVVSWGDGCAQRNKPGVYTRLPLFRDWIKENTGV
B3: MTSP-1 protease domain Q38H/I41S/D60bT/F60eG/Y60gW/D96V/F97N/T98G/F99L/C122S/G151N/Q175L/Q192D (enzyme)
chain: B2 chain with A26S, V47T, R50G, I91V, H145N
B4: MTSP-1 protease domain Q38V/I41G/F60eG/Y60gW/D96P/F97N/T98G/F99L/C122S/G151N/Q175L/Q192D (enzyme)
chain: B2 chain with H23V, A26G, V47D, R50G, I91P, H145N
B5: MTSP-1 protease domain Q38E/I41S/D60bV/F60eK/Y60gW/D96P/F97N/T98G/F99L/C122S/G151N/Q175L/Q192D (enzyme)
chain: B2 chain with H23E, A26S, R50K, I91P, H145N
B6: MTSP-1 protease domain Q38Y/I41A/D60bT/F60eG/Y60gW/D96V/F97N/T98G/F99L/C122S/G151H/Q175L/Q192D (enzyme)
chain: B2 chain with H23Y, V47T, R50G, I91V
B7: MTSP-1 protease domain Q38E/I41S/D60bW/F60eG/D96M/F97N/T98G/F99L/C122S/G151N/Q175L/Q192D (enzyme)
chain: B2 chain with H23E, A26S, V47W, R50G, W52Y, I91M, H145N
B8: MTSP-1 protease domain Q38K/I41G/F60eG/Y60gW/D96P/F97N/T98G/F99L/C122S/G151N/Q175L/Q192D (enzyme)
chain: B2 chain with H23K, A26G, V47D, R50G, I91P, H145N
B9: MTSP-1 protease domain Q38K/I41G/D60bT/F60eG/Y60gW/D96L/F97N/T98G/F99L/C122S/G151N/Q175L/Q192D (enzyme)
chain: B2 chain with H23K, A26G, V47T, R50G, I91L, H145N
B10: MTSP-1 protease domain Q38H/I41A/D60bV/F60eR/Y60gW/F97D/F99L/C122S/G151N/Q175L/Q192D (enzyme)
chain: B2 chain with I91D, N92D, G93T, H145N
B11: MTSP-1 protease domain Q38Y/I41E/D60bS/F60eV/Y60gF/D96W/F97N/T98G/F99L/C122S/G151N/Q175L/Q192D (enzyme)
chain: B2 chain with H23Y, A26E, V47S, R50V, W52F, I91W, H145N
B12: MTSP-1 protease domain Q38K/I41G/D60bT/F60eG/Y60gW/D96P/F97N/T98G/F99L/C122S/G151N/Q175L/Q192D (enzyme)
chain: B2 chain with H23K, A26G, V47T, R50G, I91P, H145N
B13: MTSP-1 protease domain Q38H/I41S/D60bT/F60eS/Y60gW/F97D/F99L/C122S/G151N/Q175L/Q192D (enzyme)
chain: B2 chain with A26S, V47T, R50S, I91D, N92D, G93T, H145N
B14: MTSP-1 protease domain Q38H/I41S/D60bT/F60eS/Y60gW/F97D/T98P/F99L/C122S/G151H/Q175L/Q192E (enzyme)
chain: B2 chain with A26S, V47T, R50S, I91D, N92D, G93P, D188E
B15: MTSP-1 protease domain Q38H/I41A/D60bV/F60eR/Y60gW/F97D/F99L/C122S/G151H/Q175L/Q192D (enzyme)
chain: B2 chain with I91D, N92D, G93T
B16: MTSP-1 protease domain Q38H/I41S/D60bT/F60eS/Y60gW/D96I/F97N/T98G/F99L/C122S/G151N/Q175L/Q192D (enzyme)
chain: B2 chain with A26S, V47T, R50S, H145N
B17: MTSP-1 protease domain Q38H/I41S/D60bT/F60eG/D96Y/F97N/T98G/F99L/C122S/G151N/Q175L/Q192D (enzyme)
chain: B2 chain with A26S, V47T, R50G, W52Y, I91Y, H145N
B18: MTSP-1 protease domain Q38H/I41S/D60bT/F60eG/D96P/F97N/T98G/F99L/C122S/G151Q/Q175L/Q192D (enzyme)
chain: B2 chain with A26S, V47T, R50G, W52Y, I91P, H145Q
B19: MTSP-1 protease domain Q38H/I41A/D60bV/F60eR/Y60gW/D96Q/F97E/ins97aD/T98S/F99L/C122S/G151N/Q175L/Q192R (enzyme)
chain: VVGGTDADEGEWPWQVSLHALGHGHACGASLISPNWLVSAAHCYIDVRGRRWSDPTQWTAFLGLHDQSQRSAPGVQERRLKRIISHPFFNQEDSLDYDIALLELEKPAEYSSMVRPISLPDASHVFPAGKAIWVTGWGHTQYGGTNALILQKGEIRVINQTTCENLLPQLITPRMMCVGFLSGGVDSCRGDSGGPLSSVEADGRIFQAGVVSWGDGCAQRNKPGVYTRLPLFRDWIKENTGV
B20: MTSP-1 protease domain Q38H/I41S/D60bT/F60eS/Y60gW/ins97aV/F97D/T98P/F99L/C122S/G151H/Q175L (enzyme)
chain: B19 chain with A26S, V47T, R50S, Q91D, E92D, D93V, S94P, N146H, R189Q
B21: MTSP-1 protease domain Q38H/I41S/D60bT/F60eS/Y60gW/F97D/ins97aV/T98P/F99L/C122S/G151H/Q192E (enzyme)
chain: B19 chain with A26S, V47T, R50S, Q91D, E92D, D93V, S94P, N146H, L170Q, R189E
B22: MTSP-1 protease domain Q38H/I41S/D60bT/F60eS/Y60gW/ins97aV/F97D/T98P/F99L/C122S/Q175L/Q192E (enzyme)
chain: B19 chain with A26S, V47T, R50S, Q91D, E92D, D93V, S94P, N146G, R189E
B23: MTSP-1 Q38H/I41A/D60bT/F60eK/Y60gW/F97T/ins97aE/T98G/F99L/C122S/G151N/Q175L/Q192D (enzyme)
chain: B19 chain with V47T, R50K, Q91D, E92T, D93E, S94G, R189D
B24: MTSP-1 protease domain Q38H/I41A/D60bV/F60eR/Y60gW/D96I/ins97aN/F97Y/T98G/F99L/C122S/G151H/Q175L/Q192D (enzyme)
chain: B19 chain with Q91I, E92Y, D93N, S94G, N146H, R189D
B25: MTSP-1 protease domain Q38H/I41S/D60bT/Y60gW/ins97aV/F97D/T98P/F99L/C122S/G151H/Q175L/Q192E (enzyme)
chain: B19 chain with A26S, V47T, R50F, Q91D, E92D, D93V, S94P, N146H, R189E
B26: MTSP-1 protease domain Q38H/I41S/D60bT/F60eS/Y60gW/D96K/ins97aV/F97G/T98P/F99L/C122S/G151H/Q175L/Q192D (enzyme)
chain: B19 chain with A26S, V47T, R50S, Q91K, E92G, D93V, S94P, N146H, R189D
B27: MTSP-1 protease domain Q38H/I41A/D60bV/F60eR/Y60gW/D96P/ins97aN/F97W/T98G/F99L/C122S/G151H/Q175L/Q192D (enzyme)
chain: B19 chain with Q91P, E92W, D93N, S94G, N146H, R189D
B28: MTSP-1 protease domain Q38H/I41S/D60bT/F60eS/Y60gW/ins97aV/F97D/T98P/C122S/G151H/Q175L/Q192E (enzyme)
chain: B19 chain with A26S, V47T, R50S, Q91D, E92D, D93V, S94P, L95F, N146H, R189E
B29: MTSP-1 protease domain Q38H/I41S/D60bT/F60eS/Y60gW/ins97aV/T98P/F99L/C122S/G151H/Q175L/Q192E (enzyme)
chain: B19 chain with A26S, V47T, R50S, Q91D, E92F, D93V, S94P, N146H, R189E
B30: MTSP-1 protease domain Q38H/I41A/D60bV/F60eR/Y60gW/D96P/ins97aN/F97W/T98G/F99L/C122S/G151N/Q175L/Q192D (enzyme)
chain: B19 chain with Q91P, E92W, D93N, S94G, R189D
B31: MTSP-1 protease domain Q38H/I41S/F60eS/Y60gW/ins97aV/F97D/T98P/F99L/C122S/G151H/Q175L/Q192E (enzyme)
chain: B19 chain with A26S, V47D, R50S, Q91D, E92D, D93V, S94P, N146H, R189E
B32: MTSP-1 protease domain Q38H/I41S/D60bT/F60eS/Y60gW/D96F/F97D/ins97aE/T98S/F99L/C122S/G151H/Q175L/Q192A (enzyme)
chain: B19 chain with A26S, V47T, R50S, Q91F, E92D, D93E, N146H, R189A
B33: MTSP-1 protease domain Q38H/I41S/D60bT/F60eS/Y60gW/D96L/ins97aG/F97D/T98N/F99L/C122S/G151H/Q175L/Q192E (enzyme)
chain: B19 chain with A26S, V47T, R50S, Q91L, E92D, D93G, S94N, N146H, R189E
B34: MTSP-1 protease domain I41S/D60bT/F60eS/Y60gW/ins97aV/F97D/T98P/F99L/C122S/G151H/Q175L/Q192E (enzyme)
chain: B19 chain with H23Q, A26S, V47T, R50S, Q91D, E92D, D93V, S94P, N146H, R189E
B35: MTSP-1 protease domain Q38H/I41S/D60bT/F60eS/Y60gW/D96Y/ins97aV/F97E/T98G/F99L/C122S/G151N/Q175L/Q192D (enzyme)
chain: B19 chain with A26S, V47T, R50S, Q91Y, D93V, S94G, R189D
B36: MTSP-1 protease domain Q38H/I41S/D60bT/F60eS/Y60gW/F97D/ins97aA/T98P/F99L/C122S/G151H/Q175L/Q192E (enzyme)
chain: B19 chain with A26S, V47T, R50S, Q91D, E92D, D93A, S94P, N146H, R189E
B37: MTSP-1 protease domain Q38H/D60bT/F60eS/Y60gW/ins97aV/F97D/T98P/F99L/C122S/G151H/Q175L/Q192E (enzyme)
chain: B19 chain with A26I, V47T, R50S, Q91D, E92D, D93V, S94P, N146H, R189E
B38: MTSP-1 protease domain Q38H/I41A/D60bV/F60eR/Y60gW/D96P/ins97aN/F97W/T98G/F99L/C122S/G151H/Q175L/Q192E (enzyme)
chain: B19 chain with Q91P, E92W, D93N, S94G, N146H, R189E
B39: MTSP-1 protease domain Q38H/I41S/D60bT/F60eS/Y60gW/ins97aV/F97D/F99L/C122S/G151H/Q175L/Q192E (enzyme)
chain: B19 chain with A26S, V47T, R50S, Q91D, E92D, D93V, S94T, N146H, R189E

The binders below were run against plasma purified human complement protein C3 (human) (UniProt P01024) (assay: cell-based or functional assay).
Sequence of plasma purified human complement protein C3 (human) (P01024 23-667, chain 1 of 2): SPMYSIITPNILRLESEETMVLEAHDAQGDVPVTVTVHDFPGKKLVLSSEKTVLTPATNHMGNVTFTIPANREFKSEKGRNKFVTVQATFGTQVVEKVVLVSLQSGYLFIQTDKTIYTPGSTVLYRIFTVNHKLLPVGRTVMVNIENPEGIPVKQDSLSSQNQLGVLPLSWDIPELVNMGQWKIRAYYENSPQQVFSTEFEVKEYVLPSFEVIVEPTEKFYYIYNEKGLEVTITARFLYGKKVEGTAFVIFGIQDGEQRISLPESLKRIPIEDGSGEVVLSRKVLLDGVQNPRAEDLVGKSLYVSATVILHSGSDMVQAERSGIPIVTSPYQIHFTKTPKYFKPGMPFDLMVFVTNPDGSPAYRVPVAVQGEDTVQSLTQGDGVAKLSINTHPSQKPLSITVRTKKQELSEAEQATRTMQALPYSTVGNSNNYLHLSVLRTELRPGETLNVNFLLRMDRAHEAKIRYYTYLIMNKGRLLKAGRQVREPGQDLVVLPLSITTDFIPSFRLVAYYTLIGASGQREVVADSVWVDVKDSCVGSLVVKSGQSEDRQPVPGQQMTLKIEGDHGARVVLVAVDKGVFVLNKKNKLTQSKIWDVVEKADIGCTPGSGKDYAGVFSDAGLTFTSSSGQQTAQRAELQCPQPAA
Sequence of plasma purified human complement protein C3 (human) (P01024 672-1663, chain 2 of 2): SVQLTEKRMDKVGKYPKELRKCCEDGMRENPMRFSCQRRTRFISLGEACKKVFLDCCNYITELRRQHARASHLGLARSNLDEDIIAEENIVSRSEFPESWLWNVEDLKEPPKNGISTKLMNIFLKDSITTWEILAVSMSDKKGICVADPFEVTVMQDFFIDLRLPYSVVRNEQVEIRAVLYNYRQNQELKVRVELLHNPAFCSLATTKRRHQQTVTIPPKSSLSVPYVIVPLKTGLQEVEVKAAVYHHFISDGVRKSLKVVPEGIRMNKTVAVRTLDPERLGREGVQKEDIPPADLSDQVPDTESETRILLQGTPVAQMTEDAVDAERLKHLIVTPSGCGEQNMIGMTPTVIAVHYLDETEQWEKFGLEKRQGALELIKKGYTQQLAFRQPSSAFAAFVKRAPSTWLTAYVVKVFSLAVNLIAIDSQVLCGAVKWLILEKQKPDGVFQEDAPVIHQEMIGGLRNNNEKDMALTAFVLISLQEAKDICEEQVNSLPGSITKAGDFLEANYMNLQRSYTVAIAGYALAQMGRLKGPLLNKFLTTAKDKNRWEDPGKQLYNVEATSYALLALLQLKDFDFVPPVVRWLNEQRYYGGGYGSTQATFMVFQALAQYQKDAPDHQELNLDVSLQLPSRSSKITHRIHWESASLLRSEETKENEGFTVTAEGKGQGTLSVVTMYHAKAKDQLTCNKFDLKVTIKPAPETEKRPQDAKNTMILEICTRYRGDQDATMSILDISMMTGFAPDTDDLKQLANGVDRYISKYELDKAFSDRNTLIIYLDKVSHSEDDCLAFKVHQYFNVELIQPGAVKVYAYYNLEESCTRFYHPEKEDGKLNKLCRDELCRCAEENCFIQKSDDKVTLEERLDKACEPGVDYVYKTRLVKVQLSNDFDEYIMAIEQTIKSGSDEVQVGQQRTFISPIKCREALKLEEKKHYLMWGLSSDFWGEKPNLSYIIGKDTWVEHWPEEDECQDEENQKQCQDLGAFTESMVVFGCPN

EC50 of hC3 cleavage [nM]	EC50 hC3 cleavage [nM]	Binder
13.9		B1
	2.52	B2
	4.47	B3
	27.4	B4
	45.9	B5
	5.06	B6
	22.3	B7
	62.7	B8
	12.5	B9
	7.04	B10
	227	B11
	27.4	B12
	4.9	B13
	25.7	B14
	3.72	B15
	3.04	B16
	9.56	B17
	34.2	B18
	4.6	B19
	1.31	B20

EC50 of hC3 cleavage [nM]	EC50 hC3 cleavage [nM]	Binder
	11.9	B21
	4.86	B22
14.4		B23
	1.57	B24
	10.4	B25
	6.86	B26
	1.83	B27
	11.5	B28
	3.19	B29
	2.54	B30
	3.83	B31
	1.17	B32
	1.59	B33
	6.33	B34
	4.13	B35
	4.07	B36
	66.7	B37
	1.11	B38
	7.82	B39
